doi:10.1101/2021.10.07.463402

Target: SARS-CoV-2 spike glycoprotein (S), wild type (SARS-CoV-2 strain Wuhan-Hu-1)
Test: native gel or EMSA

SARS-CoV-2 spike glycoprotein (S), wild type (natural protein)
stoichiometry N: 3
